This passage reports protein stability index results from the supplement of paper PMC10567573.

± gives the standard deviation.

The series can be described thus: protein stability index of a GFP-peptide fusion (GPS, HEK-293T) (PSI 1-6); higher = more stable.
Where [1] appears, read: treatment: DMSO, c terminus: a fixed tail appended.
[2] abbreviates: treatment: MLN4924 1 uM, 8 h, c terminus: a fixed tail appended.
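Note: 24-mer peptide tiles fused after GFP, lentivirally expressed, FACS-sorted into six equal bins by GFP/DsRed ratio, decoded by Illumina sequencing, PSI is the read-weighted mean bin number.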

Take EMKLQKNFLTQRENTIAGANHTHT [C10orf62]: the protein stability index runs as follows: under setting [1], 3.78 ± 0.44; under setting [2], 3.65 ± 0.4.

For VIAKWDYTAQQDQELDIKKNERLW [NCK2], the protein stability index reads like this: under setting [1], 3.28 ± 0.093; under setting [2], 3.4 ± 0.32.

In turn, RMKEPSSPPPAPTSSTFGLQDGNL [CHCHD6] returned a protein stability index under setting [1] of 4.63 ± 0.26 and a protein stability index under setting [2] of 4.53 ± 0.35.

As to QTALLESSCENKRADLVFIIDSSR [MATN2], the protein stability index amounted to 3.05 ± 0.24 under setting [1] and 3.24 ± 0.28 under setting [2].

On to LQVAGLSEEQLQEPITGWRKTVCH [LPCAT4], for which the protein stability index by setting is: under setting [1], 3.29 ± 0.25; under setting [2], 3.47 ± 0.12.

RYQHGIAVIGNFLYVVGGQSNYDT [KLHL13]: the protein stability index stood at 2.42 ± 0.49 under setting [1] and 2.44 ± 0.5 under setting [2].

In the case of CDPSRIYKPQTRLKRKQPVRKRQ [DFFB], the protein stability index by setting is: (treatment: DMSO, c terminus: native) 3.96 ± 0.36; (treatment: MLN4924 1 uM, 8 h, c terminus: native) 4.15 ± 0.13.

As to DFYEAMDDYTSAIEVQPNFEVPYY [TTC32], the protein stability index under setting [1] turned out to be 2.64 ± 0.23 and the protein stability index under setting [2] is 2.84 ± 0.3.

QEILLAHRRFCELLPQEQRSVESS [CIB1]: the protein stability index turned out to be 4.16 ± 0.15 under setting [1] and 4.32 ± 0.11 under setting [2].

Regarding VTSIPSVSDSLTWREFHYIQSKLG [STEAP1], the protein stability index by setting is: under setting [1], 2.66 ± 0.24; under setting [2], 2.69 ± 0.18.

For the sequence MAEPSAATQSHSISSSSFGAEPSA [RTN3], the protein stability index reads like this: under setting [1], 5.06 ± 0.096; under setting [2], 5.17 ± 0.13.

Sequence LEKPPAPNQAMVVAAAGDACPPQH [TBC1D10A] showed a protein stability index under setting [1] of 5.21 ± 0.21 and a protein stability index under setting [2] of 5.2 ± 0.33.

DEKDRIITAFYNEARARARANRGI [DNAJC4] had a protein stability index under setting [1] of 4 ± 0.35 and a protein stability index under setting [2] of 4.16 ± 0.17.

Regarding GILNRPPAPTATVPAPQPPVTKPL [ZNF207], the protein stability index reads like this: under setting [1], 4.53 ± 0.19; under setting [2], 4.57 ± 0.16.

ISHWHPNITINIVDDHTPWVKGSV [CLPTM1] had a protein stability index under setting [1] of 2.37 ± 0.22 and a protein stability index under setting [2] of 2.03 ± 0.34.

Take PVEYRSDVNSFVTECEPSELFQLQ [CDS1]: the protein stability index reads like this: under setting [1], 4.5 ± 0.36; under setting [2], 4.55 ± 0.18.
